Measured values reported in the supplement of paper PMC12764529.
± gives the half width of the 95% confidence interval.

Key:
[1] = folding stability dG unfold (combined trypsin and chymotrypsin); higher = more stable
Summary of the method: (§1)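 Digests were run with trypsin and chymotrypsin at 11 concentrations in threefold dilutions, plus a no-protease condition, on designed mini-proteins in a PA-tagged cDNA display construct. The mini-proteins were under 80 residues, had no cysteine, and were kept only when AlphaFold2 dimer inter-PAE was above 15. After sequencing, Bayesian fitting of the counts gave K50, from which unfolding free energy was derived against a sequence-predicted unfolded-state K50 and a shared folded-state K50, per protease or combined.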

[2] = folding stability dG unfold from chymotrypsin proteolysis; higher = more stable
Summary of the method: as §1

[3] = folding stability dG unfold from trypsin proteolysis; higher = more stable
Summary of the method: as §1

Sequence	folding stability dG unfold [1]	folding stability dG unfold [2]	folding stability dG unfold [3]
SAGGSAGGSAGLPVLRPLIIPGPSVLRILEVRLREDGSVEVISEETIPLPPPIPSPSELTSAGGSAGGSAGG [r11_843_TrMRF]	0.905 ± 0.13 kcal/mol	0.994 ± 0.16 kcal/mol	0.763 ± 0.038 kcal/mol
SAGRIHFMDSPSQARDQAEENNYPIVIGMDKGSGWMQIAIYKGGKPKPIRQIPPNNPEINRFIKKLGFTSAG [r5_458_TrROS]	0.0603 ± 0.14 kcal/mol	-0.14 ± 0.16 kcal/mol	0.149 ± 0.093 kcal/mol
SAGGKIKLSPEALKALEEAIKKGDKNKTIFIELPDGSRIEVLPDGRIKVINKNGEEYELSEIKKIYPSAGGS [r16_664_TrROS_Hall]	2.58 ± 0.22 kcal/mol	2.31 ± 0.12 kcal/mol	2.99 ± 0.2 kcal/mol
SAGGSAGGSAPNQTWVLRITIKFPNGKKRSFQFTFPLDDIKEEIEEEFGIDDIDIEWQPLDSAGGSAGGSAG [r3_220_TrROS]	2.84 ± 0.12 kcal/mol	2.77 ± 0.069 kcal/mol	2.63 ± 0.061 kcal/mol
SAGGSAGGDYVKIEIWIPPGMPDAEELVDKMSNYGFEIKKIERDPKNNYVRVTIVFQIPPGAIKSAGGSAGG [r6_604_TrROS]	2.26 ± 0.27 kcal/mol	2.43 ± 0.067 kcal/mol	1.67 ± 0.084 kcal/mol
SAGGSAGGVEPVVVGRVPVVVRDPATGELREAEILRALPDGTLFIRFPNGERAEIRGAPVLSLASAGGSAGG [r6_433_TrMRF]	1.35 ± 0.086 kcal/mol	1.54 ± 0.096 kcal/mol	1.07 ± 0.035 kcal/mol
SAGGPPEGEKKKFRIDDVQPMPNPNGYFMVQIRYNDKPVSSIPIPPNNLDKLANDLPPGMEVEIYPFSAGGS [r8_41_TrROS]	0.369 ± 0.21 kcal/mol	0.511 ± 0.19 kcal/mol	0.06 ± 0.11 kcal/mol
SMVTVETRPEEVLPDAEGRLRRVTVVITFPDGKTLTVDMEFPPDVSDEEVEERLRALVEELGVESIELLGSA [r9_1203_JUSTAS]	2.99 ± 0.17 kcal/mol	1.81 ± 0.086 kcal/mol	3.7 ± 0.11 kcal/mol
SEINFKPVKVDKNGNFYVENETKPGLVEKLIEAIKELFPGVEITEIKEIPEPPKIEIKAKHPSGKEFTFGSA [r9_1164_TrMRF]	0.825 ± 0.11 kcal/mol	0.789 ± 0.11 kcal/mol	0.927 ± 0.074 kcal/mol
SAGGSAGGSAGFFIRIEPPNGEKVHFPMPPNQLPELAEEFPGLKIDDIDEGNGWIWVEVPSAGGSAGGSAGG [r17_22_TrROS]	-0.264 ± 0.35 kcal/mol	-0.453 ± 0.47 kcal/mol	-0.0744 ± 0.23 kcal/mol
SAGGAVLTTEDPEKISLTFYSPEGAVLGSEEIEVEPPEIVLTNVPPEEAAAIKKENPDVPISLNPALGSAGG [r13_235_JUSTAS]	0.685 ± 0.071 kcal/mol	0.456 ± 0.029 kcal/mol	0.956 ± 0.03 kcal/mol
SSGIAEIVAANPGVSLEELAKLIKEKLKAELPTDEPIEIKMTKSPDGYKITITIKDENNWHSDEYYVKPGSA [r9_805_JUSTAS]	3.07 ± 0.19 kcal/mol	3.14 ± 0.16 kcal/mol	2.95 ± 0.2 kcal/mol
SAGGSAGGSAGGMKIKITVEVFDPNTGKVLKTEEFTSLEEAEKKVKEEDPNKVKVTVKEESAGGSAGGSAGG [r7_201_JUSTAS]	1.33 ± 0.077 kcal/mol	1.71 ± 0.032 kcal/mol	0.805 ± 0.056 kcal/mol
SAGPAVVIPLPLDPEKWSPEEILEAAIKLAEEAYKAGLPGSVTLLVPVPEKPLLITIDPKTGKITVDPSAGG [r19_204_TrMRF]	1.63 ± 0.072 kcal/mol	1.73 ± 0.066 kcal/mol	1.49 ± 0.083 kcal/mol
SAGGSAGGSAGGGMTTTTETTTTTFPTNNLTTTTTTTTTLETSTGTTLSSTSTTTVTASSAGGSAGGSAGGS [r10_469_JUSTAS]	1.2 ± 0.072 kcal/mol	0.234 ± 0.12 kcal/mol	1.96 ± 0.18 kcal/mol
SAGGMRIEVEIEEVRELPDGRLVFRVRARIELKVRVLERDENGRWRELPEEEVTVELEVEVEVFLPPSAGGS [r16_693_TrROS_Hall]	4.75 ± 0.3 kcal/mol	5.08 ± 0.21 kcal/mol	3.97 ± 0.19 kcal/mol
SAGTTVTLTDPVTGNVTTITKDPTDPNLWTVTLPDGSSVTAKRSEIAKKLGLSPEKLLSDYPVPSVSLTSAG [r5_156_JUSTAS]	1.94 ± 0.038 kcal/mol	1.88 ± 0.024 kcal/mol	1.94 ± 0.031 kcal/mol
SAGGSAGGSAGKPKIKIEEIIEIEVITKKKIPETGKEKETPEKLYIIKVKVENIPPNLKVSAGGSAGGSAGG [r17_530_TrMRF]	1.38 ± 0.25 kcal/mol	2.11 ± 0.06 kcal/mol	0.466 ± 0.11 kcal/mol
SAGGSASPFYIAYDPNKPNVATIYPSSQPNLSGSNGATVTPLTDEAELAALKAELKAAGITTITFSSAGGSA [r15_1004_JUSTAS]	0.65 ± 0.11 kcal/mol	0.355 ± 0.22 kcal/mol	0.834 ± 0.054 kcal/mol
SAGGSAGGSAGNWRWIMIPIKVPPGLEAGEEIEIKIPNGVEVWYHYNEPGTIWMMIRVPDSAGGSAGGSAGG [r11_362_TrROS]	2.88 ± 0.085 kcal/mol	2.96 ± 0.037 kcal/mol	2.69 ± 0.069 kcal/mol
SAGGNRIMFFFDTPEQAREIAKELAKNFPGYKLDVEVHTQEMKVKDPDNGEEQRYPMVMVEIEIKPPSAGGS [r16_828_TrROS]	1.52 ± 0.17 kcal/mol	1.44 ± 0.13 kcal/mol	1.6 ± 0.049 kcal/mol
